± gives the standard error. This sample holds only a part of the variants without activity.

First the molecules themselves.
B1: glmS ribozyme (parent)
chain: AUAAAAGCGCCAGAACUACAGAAAUGUAGUUGACGAGGAGGAGGUUUAUCGAAUUUUCGGCGGAUGCCUCCAAA

Common to all, as to settings: with glucosamine-6-phosphate
Data set [1] covers variants of B1. The experiment in a line: self-cleavage kobs at 160 uM GlcN6P; higher = faster cleavage; RNA array. The method, boiled down: (§1)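 Glucosamine-6-phosphate (40 μM to 10 mM) in HEPES/KCl/Mg(OAc)2 buffer was flowed over sequenced MiSeq chips, and tiles were imaged over ~14 h. Barcoded ribozyme variants there had been transcribed in situ by E. coli RNA polymerase and were tracked through a hybridised Cy3 probe at 37 °C. One- or two-exponential decay fits to per-tile medians, normalised to baseline and to non-cleaving reference variants, gave kobs. kcat and KM came from weighted Michaelis–Menten fits across concentrations.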

In data set [2] the parent is B1. The experiment in a line: self-cleavage kobs at 640 uM GlcN6P; higher = faster cleavage; RNA array. The method, boiled down:
as §1

In data set [3] the parent is B1. Put plainly: self-cleavage kobs at 2500 uM GlcN6P; higher = faster cleavage; RNA array. Summed up:
as §1

The variants in data set [4] derive from B1. The experiment in a line: self-cleavage kobs at 10000 uM GlcN6P; higher = faster cleavage; RNA array. The method, boiled down: as §1

Consider A6U A15C U55A G66U, for which the “self-cleavage kobs at 160 uM GlcN6P” value in data set [1] was less than 1e-05 s⁻¹. For the same variant, the “self-cleavage kobs at 640 uM GlcN6P” value in data set [2] was less than 1e-05 s⁻¹. Besides, the “self-cleavage kobs at 2500 uM GlcN6P” value in data set [3] is less than 1e-05 s⁻¹.
For the variant C8G G40C U49C C61A, in data set [1], the “self-cleavage kobs at 160 uM GlcN6P” value was less than 1e-05 s⁻¹. In data set [2], the “self-cleavage kobs at 640 uM GlcN6P” value was less than 1e-05 s⁻¹. Besides, the “self-cleavage kobs at 2500 uM GlcN6P” value in data set [3] was less than 1e-05 s⁻¹.
G40U U49C U65G: in data set [1], the “self-cleavage kobs at 160 uM GlcN6P” value is less than 1e-05 s⁻¹. Also, the “self-cleavage kobs at 2500 uM GlcN6P” value in data set [3] is less than 1e-05 s⁻¹.
As for C50A C67U C71G, in data set [1], the “self-cleavage kobs at 160 uM GlcN6P” value is 4.46e-05 ± 2.1e-05 s⁻¹. The “self-cleavage kobs at 640 uM GlcN6P” value in data set [2] worked out at 0.000107 ± 2.5e-05 s⁻¹.
For the variant G29A C50G, the “self-cleavage kobs at 160 uM GlcN6P” value in data set [1] was 0.000108 ± 3.1e-05 s⁻¹. Besides, the “self-cleavage kobs at 640 uM GlcN6P” value in data set [2] was 3.64e-05 ± 1.5e-05 s⁻¹. Moreover, the “self-cleavage kobs at 2500 uM GlcN6P” value in data set [3] was determined as 0.00038 ± 0.00019 s⁻¹.
On to G13C C50G, for which the “self-cleavage kobs at 160 uM GlcN6P” value in data set [1] is 0.00119 ± 0.00034 s⁻¹.
For the variant A36C A42G, the “self-cleavage kobs at 160 uM GlcN6P” value in data set [1] is less than 1e-05 s⁻¹. The “self-cleavage kobs at 2500 uM GlcN6P” value in data set [3] is less than 1e-05 s⁻¹. For the same variant, in data set [4], the “self-cleavage kobs at 10000 uM GlcN6P” value is less than 1e-05 s⁻¹.
On to G44C C50U U54C, for which the “self-cleavage kobs at 160 uM GlcN6P” value in data set [1] was less than 1e-05 s⁻¹. The “self-cleavage kobs at 640 uM GlcN6P” value in data set [2] is less than 1e-05 s⁻¹.
With A6G G7C C10U G35U G40U G60A C70G, the “self-cleavage kobs at 160 uM GlcN6P” value in data set [1] is less than 1e-05 s⁻¹. Moreover, the “self-cleavage kobs at 640 uM GlcN6P” value in data set [2] was less than 1e-05 s⁻¹. Also, the “self-cleavage kobs at 2500 uM GlcN6P” value in data set [3] was less than 1e-05 s⁻¹.
In the case of U30A G41U U57G G62A, the “self-cleavage kobs at 160 uM GlcN6P” value in data set [1] was less than 1e-05 s⁻¹. For the same variant, the “self-cleavage kobs at 640 uM GlcN6P” value in data set [2] was less than 1e-05 s⁻¹. In data set [3], the “self-cleavage kobs at 2500 uM GlcN6P” value was less than 1e-05 s⁻¹.
For the variant U49C U57C G60A G63A, the “self-cleavage kobs at 160 uM GlcN6P” value in data set [1] is less than 1e-05 s⁻¹. Also, in data set [2], the “self-cleavage kobs at 640 uM GlcN6P” value was less than 1e-05 s⁻¹. Moreover, the “self-cleavage kobs at 2500 uM GlcN6P” value in data set [3] was less than 1e-05 s⁻¹.
As for C8U C16A A39C U46C G51A U65G U69A, the “self-cleavage kobs at 160 uM GlcN6P” value in data set [1] is less than 1e-05 s⁻¹. Further, in data set [3], the “self-cleavage kobs at 2500 uM GlcN6P” value was less than 1e-05 s⁻¹.
Regarding A33G A53C C71U, the “self-cleavage kobs at 160 uM GlcN6P” value in data set [1] is less than 1e-05 s⁻¹.
Turning to G59C G62A, the “self-cleavage kobs at 160 uM GlcN6P” value in data set [1] is less than 1e-05 s⁻¹. In addition, the “self-cleavage kobs at 640 uM GlcN6P” value in data set [2] was less than 1e-05 s⁻¹. In data set [3], the “self-cleavage kobs at 2500 uM GlcN6P” value was less than 1e-05 s⁻¹.
Regarding A14G G32A G38U, the “self-cleavage kobs at 160 uM GlcN6P” value in data set [1] is less than 1e-05 s⁻¹. In data set [3], the “self-cleavage kobs at 2500 uM GlcN6P” value was less than 1e-05 s⁻¹. Besides, the “self-cleavage kobs at 10000 uM GlcN6P” value in data set [4] is less than 1e-05 s⁻¹.
In the case of C50G G63A A64U, the “self-cleavage kobs at 160 uM GlcN6P” value in data set [1] was 0.000145 ± 4.6e-05 s⁻¹. Further, in data set [2], the “self-cleavage kobs at 640 uM GlcN6P” value was 0.000136 ± 4.5e-05 s⁻¹.
Turning to C34U A52C A64U C67U, in data set [1], the “self-cleavage kobs at 160 uM GlcN6P” value is less than 1e-05 s⁻¹. For the same variant, the “self-cleavage kobs at 640 uM GlcN6P” value in data set [2] is less than 1e-05 s⁻¹. Besides, the “self-cleavage kobs at 2500 uM GlcN6P” value in data set [3] was less than 1e-05 s⁻¹.
As to G9U A33C C67G, the “self-cleavage kobs at 160 uM GlcN6P” value in data set [1] was less than 1e-05 s⁻¹. Moreover, in data set [3], the “self-cleavage kobs at 2500 uM GlcN6P” value is less than 1e-05 s⁻¹.
Take A36C G40A: the “self-cleavage kobs at 160 uM GlcN6P” value in data set [1] is less than 1e-05 s⁻¹. In addition, the “self-cleavage kobs at 640 uM GlcN6P” value in data set [2] was less than 1e-05 s⁻¹. Also, in data set [4], the “self-cleavage kobs at 10000 uM GlcN6P” value was less than 1e-05 s⁻¹.
As to C8G A42U C58U, the “self-cleavage kobs at 160 uM GlcN6P” value in data set [1] is less than 1e-05 s⁻¹. The “self-cleavage kobs at 2500 uM GlcN6P” value in data set [3] is less than 1e-05 s⁻¹.
In the case of A15C A64U, the “self-cleavage kobs at 160 uM GlcN6P” value in data set [1] is less than 1e-05 s⁻¹. Also, the “self-cleavage kobs at 640 uM GlcN6P” value in data set [2] was less than 1e-05 s⁻¹.
Consider C34A U57G, for which the “self-cleavage kobs at 160 uM GlcN6P” value in data set [1] was less than 1e-05 s⁻¹. Also, in data set [4], the “self-cleavage kobs at 10000 uM GlcN6P” value is less than 1e-05 s⁻¹.
Consider U45C C61A, for which the “self-cleavage kobs at 160 uM GlcN6P” value in data set [1] is less than 1e-05 s⁻¹. Besides, the “self-cleavage kobs at 2500 uM GlcN6P” value in data set [3] is less than 1e-05 s⁻¹. Further, in data set [4], the “self-cleavage kobs at 10000 uM GlcN6P” value is less than 1e-05 s⁻¹.
On to G13U A36U G43A G51A C67G C70U, for which the “self-cleavage kobs at 160 uM GlcN6P” value in data set [1] was less than 1e-05 s⁻¹. In addition, the “self-cleavage kobs at 2500 uM GlcN6P” value in data set [3] is less than 1e-05 s⁻¹.
As for G13A C34G G62U, the “self-cleavage kobs at 160 uM GlcN6P” value in data set [1] was less than 1e-05 s⁻¹. Moreover, the “self-cleavage kobs at 640 uM GlcN6P” value in data set [2] is less than 1e-05 s⁻¹.
C10G A12G G38C: the “self-cleavage kobs at 160 uM GlcN6P” value in data set [1] is less than 1e-05 s⁻¹. Also, in data set [2], the “self-cleavage kobs at 640 uM GlcN6P” value is less than 1e-05 s⁻¹.
Turning to G51U U55G C58G C61G, the “self-cleavage kobs at 160 uM GlcN6P” value in data set [1] came to 3.64e-05 ± 1.6e-05 s⁻¹.

These data come from the supplement of paper PMC7125110.
